The results in this text go back to patent US20180037654A1.

Test [1] has as its target Mou-Hum-CTLA-4 (mouse/human chimera). The test is described as follows: CELISA on CHO-K1 cells transiently transfected with Mou-Hum-CTLA-4, panel Mouse/Human.
For test [2], the target named is rhCTLA-4/Fc/6His (human). The test can be described thus: BLI (Octet RED96), antibody amine-coupled to biosensor, rhCTLA-4/Fc 2.5-40 nM, 1:1 global fit.
For test [3], the target named is human CTLA-4 (Y166G and Y183G) expressed on CHO-K1.hCTLA-4 cells (human) (UniProt P16410). The test can be described thus: CELISA, blockade of biotinylated hCD86/Fc binding to CHO-K1.hCTLA-4 cells (Example 6).
For test [4] the target is unchanged. The test is described as follows: CELISA on CHO-K1.hCTLA-4 cells (Example 6).
Test [5] shares this target. The test is described as follows: CELISA, blockade of biotinylated hCD80/Fc binding to CHO-K1.hCTLA-4 cells (Example 6).
In test [6] the target is human CTLA-4 (human) (UniProt P16410). The test can be described thus: CELISA on CHO-K1 cells transiently transfected with human CTLA-4, panel Human.
Sequence of human CTLA-4 (human) (P16410 36-223 limits assumed): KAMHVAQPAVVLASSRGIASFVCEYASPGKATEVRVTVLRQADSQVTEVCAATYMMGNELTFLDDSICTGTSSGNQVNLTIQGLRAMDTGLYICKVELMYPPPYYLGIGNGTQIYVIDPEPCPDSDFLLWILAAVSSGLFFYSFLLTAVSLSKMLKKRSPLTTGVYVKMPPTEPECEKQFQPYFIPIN

Sequence of human CTLA-4 (Y166G and Y183G) expressed on CHO-K1.hCTLA-4 cells (human) (P16410 36-223 Y201G/Y218G limits assumed): as the sequence (P16410 36-223 limits assumed) above, with Y166G, Y183G counted along it
Sequence of CP-675,206 (antibody) (VH): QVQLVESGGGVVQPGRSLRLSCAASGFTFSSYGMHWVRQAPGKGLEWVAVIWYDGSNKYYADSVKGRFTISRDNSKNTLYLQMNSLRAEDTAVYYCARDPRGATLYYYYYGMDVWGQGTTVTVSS
Sequence of CP-675,206 (antibody) (VL): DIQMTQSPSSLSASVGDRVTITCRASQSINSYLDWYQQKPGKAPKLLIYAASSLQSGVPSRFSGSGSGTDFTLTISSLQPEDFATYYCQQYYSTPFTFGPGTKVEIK
Sequence of Mou-Hum-CTLA-4 (mouse/human chimera) (chain, as listed by the source mutant limits assumed): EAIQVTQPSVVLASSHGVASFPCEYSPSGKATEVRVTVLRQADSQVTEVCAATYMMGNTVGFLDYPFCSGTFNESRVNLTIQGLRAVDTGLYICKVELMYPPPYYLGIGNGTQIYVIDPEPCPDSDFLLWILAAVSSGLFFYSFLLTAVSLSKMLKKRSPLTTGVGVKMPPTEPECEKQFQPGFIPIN
Sequence of rhCTLA-4/Fc/6His (human) (chain, as listed by the source limits assumed): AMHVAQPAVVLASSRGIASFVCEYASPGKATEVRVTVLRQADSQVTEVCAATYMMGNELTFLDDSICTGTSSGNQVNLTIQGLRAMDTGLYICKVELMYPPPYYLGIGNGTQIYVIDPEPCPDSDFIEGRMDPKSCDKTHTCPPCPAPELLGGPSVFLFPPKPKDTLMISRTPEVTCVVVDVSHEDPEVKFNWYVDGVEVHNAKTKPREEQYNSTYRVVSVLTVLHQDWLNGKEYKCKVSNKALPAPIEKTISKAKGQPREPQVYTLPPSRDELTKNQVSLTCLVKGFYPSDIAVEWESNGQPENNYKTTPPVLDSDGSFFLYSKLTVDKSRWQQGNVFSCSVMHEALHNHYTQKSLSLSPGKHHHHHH

As usually defined, the EC50 (read off the curve) is the concentration at which the effect is half-maximal. In general, Kd refers to the constant that tells how readily two partners part at equilibrium. Read a low Kd as tighter binding. For orientation: IC50 means the concentration at which inhibition is half-maximal. A word on the EC50: it is the concentration that produces a half-maximal response. A low value points to a more potent agent. For the substance CP-675,206 (antibody), the EC50 (read off the curve) in test [1] is 0.04 nM; in test [6], 0.05 nM. The substance also had a Kd in test [2] of 3.4 nM. For the same substance, the figures for the IC50 in test [3] and in test [5] were 1.69 nM and 1.75 nM, respectively. The EC50 in test [4] amounted to 0.037 nM.
